# Test results taken from PMC9587256, “The retaining β-Kdo glycosyltransferase WbbB uses a double-displacement mechanism with an intermediate adduct rearrangement step” (Nature Communications, 2022).
# Positions count from the first letter of the chain named.
# B1: WbbB_(GT99)-E158Q (domain or fragment)
# chain: LAVFLPPYPFRGLKAPYLWMFYKYLHCATDSILFITGEDYLSVTDDEAQRARWEFDPASMASLGYELPNAQSMACHEYLTLDNAFYETLLSRHHHDPIKSFSAFLTERIPDLETELHALLDSKKGIIDQIDTFISICNCPSLEHVARTLGKEVMHIQIGPLRAPMYRNTAYLDFAGVNGGTEASARYEKCQAEFDIKASLGDLHNYFLEVLPPAEAATHSAAGVVLQVEDDSNLIAYNHDFTNISLLSYVRQRYEKEDILVRAHPGSLFRLRDDVFTIDDSANSLAFINQCNEVFTINSSVGLEAILTGKKTTVLGDCSYAFINELAGASATVNAAAFYLFSYLVPFDLVFNQEYLKFRLGHPEEREIVGKHIEFYSADMPGSLSQAAHSLSSLINEAIS
# notes: source: ClearColi BL21 (DE3) E. coli, purified (IMAC, desalting)
# B2: WbbB_(GT99)-D232N (domain or fragment)
# chain: B1 chain with Q157E, D231N
# modifications: Kdo modified in ~8% after the CMP-β-Kdo reaction mix; N-terminal methionine removed with variable efficiency
# notes: source: ClearColi BL21 (DE3) E. coli, purified (IMAC, desalting), then reacted with the CMP-β-Kdo reaction mix
# B3: WbbB_(GT99)-D232C (domain or fragment)
# chain: B1 chain with Q157E, D231C
# notes: as for B2
# Assays:
# WbbBGT99 = biological target: T1, WbbBGT99 (Klebsiella terrigena, UniProt Q6U8B0); test: native MS and pepsin MS/MS after NaBH4 reduction of the enzyme-Kdo adduct; format: biochemical; details: covalent; Kdo transferred to Asp232; donor generated in situ from CTP, Kdo and KdsB; Mg; 5 min then NaBH4, room temperature
# T1 construct: gene wbbB; WbbBGT99-His6 in pET28a, expressed in E. coli BL21(DE3) or ClearColi BL21(DE3); dimer in native MS
# T1 sequence (Q6U8B0 entry or part of it): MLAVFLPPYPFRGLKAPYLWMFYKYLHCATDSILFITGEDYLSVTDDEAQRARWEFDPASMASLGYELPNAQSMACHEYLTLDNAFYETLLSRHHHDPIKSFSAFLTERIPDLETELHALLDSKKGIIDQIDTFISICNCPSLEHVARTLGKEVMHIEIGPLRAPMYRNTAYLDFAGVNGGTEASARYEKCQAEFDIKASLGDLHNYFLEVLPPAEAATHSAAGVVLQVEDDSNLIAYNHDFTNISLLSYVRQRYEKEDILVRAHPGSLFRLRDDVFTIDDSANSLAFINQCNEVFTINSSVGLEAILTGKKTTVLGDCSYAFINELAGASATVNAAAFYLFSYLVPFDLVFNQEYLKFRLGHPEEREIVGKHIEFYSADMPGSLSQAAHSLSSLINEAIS
# [1] = biological target: the molecule itself; test: native MS; nanoESI, positive mode, UHMR Orbitrap; aqueous ammonium acetate 200 mM, pH 7, 25 °C; +21 charge state of the dimer; before or after reaction with the CMP-Kdo reaction mix
Molecule,native MS and pepsin MS/MS after NaBH4 reduction of the enzyme-Kdo adduct (WbbBGT99),stoichiometry N [1]
Nc1ccn([C@@H]2O[C@H](COP(=O)(O)O[C@@]3(C(=O)O)C[C@@H](O)[C@@H](O)[C@@H]([C@H](O)CO)O3)[C@@H](O)[C@H]2O)c(=O)n1 [CMP-β-Kdo],Asp232 is the sole residue that has been converted to homoserine,
B1,,2
B2,,2
B3,,2
